Measured values from patent publication US8026218 (UNIVERSITY OF ARIZONA, dated 2011).
Bridge positions count the residues as written; N and C are the ends. Square brackets hold non-standard residues; d marks the D form. Ends that are not written are not given here. * marks the point of attachment. Glc = O-glucosyl on Ser side chain (Ser(OGlu)/Ser(OGlc)); NH(3,5-(CF3)2-benzyl) = FC(F)(F)c1cc(CN*)cc(C(F)(F)F)c1; OBzl(3,5-(CF3)2) = FC(F)(F)c1cc(CO*)cc(C(F)(F)F)c1; NH‑Bn(CF3)2 = C-terminal Bn(CF3)2 amide; Dmt = Cc1cc(O)cc(C)c1C[C@H](N)C(=O)O; NMe(benzyl) = CN(Cc1ccccc1)*; Nle = CCCC[C@H](N)C(=O)O; NHBn = c1ccc(CN*)cc1; OBn = c1ccc(CO*)cc1

B1: TyrDAlaGlyPheSer(OGlu)ProLeuTrpNHBn(CF3)2 (TY042) (peptide)
peptide: Y[dA]GFSPLW-{NH(3,5-(CF3)2-benzyl)}
modifications: not fully specified (residue 5); printed as TyrDAlaGlyPheSer(OGlu)ProLeuTrpNHBn(CF3)2

molecular target: T1, human δ opioid receptor (human, UniProt P41143 1-372); assay: cell-based or functional assay
T1 sequence (P41143 whole entry, stated change not applied): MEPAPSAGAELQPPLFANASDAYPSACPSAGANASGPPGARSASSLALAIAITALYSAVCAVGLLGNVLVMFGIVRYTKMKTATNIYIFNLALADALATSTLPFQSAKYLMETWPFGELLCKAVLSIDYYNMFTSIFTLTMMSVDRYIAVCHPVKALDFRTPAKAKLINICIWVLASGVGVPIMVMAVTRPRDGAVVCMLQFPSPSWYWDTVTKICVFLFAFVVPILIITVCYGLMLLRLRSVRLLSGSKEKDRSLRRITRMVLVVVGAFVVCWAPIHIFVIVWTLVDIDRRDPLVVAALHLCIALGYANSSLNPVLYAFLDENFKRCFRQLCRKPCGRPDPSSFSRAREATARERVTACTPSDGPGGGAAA

Row | Binder | GTP binding hDOR EC50 | GTP binding hDOR Emax
1 | B1 | 51.9 nM | 47%
2 | Y[dA]GF[Nle]PS(Glc)W-{NH‑Bn(CF3)2} [TyrDAlaGlyPheNleProSer(OGlu)TrpNHBn(CF3)2 (TY041)] | 7.9 nM | 62%
3 | [Dmt][dA]GFMPLW-NHBn [DmtDAlaGlyPheMetProLeuTrpNHBn (TY034)] | 0.3 nM | 
4 | Y[dC]GF[Nle]PCW-{NH(3,5-(CF3)2-benzyl)} (disulfide 2-7, also called [D-Cys2, Cys7]TY027) [Tyr[DCysGlyPheNleProCys]TrpNHBn(CF3)2 (TY035)] | 0.02 nM | 11%

molecular target: T2, rat µ opioid receptor (rat, UniProt P33535 1-398); assay: cell-based or functional assay
T2 sequence (P33535 whole entry): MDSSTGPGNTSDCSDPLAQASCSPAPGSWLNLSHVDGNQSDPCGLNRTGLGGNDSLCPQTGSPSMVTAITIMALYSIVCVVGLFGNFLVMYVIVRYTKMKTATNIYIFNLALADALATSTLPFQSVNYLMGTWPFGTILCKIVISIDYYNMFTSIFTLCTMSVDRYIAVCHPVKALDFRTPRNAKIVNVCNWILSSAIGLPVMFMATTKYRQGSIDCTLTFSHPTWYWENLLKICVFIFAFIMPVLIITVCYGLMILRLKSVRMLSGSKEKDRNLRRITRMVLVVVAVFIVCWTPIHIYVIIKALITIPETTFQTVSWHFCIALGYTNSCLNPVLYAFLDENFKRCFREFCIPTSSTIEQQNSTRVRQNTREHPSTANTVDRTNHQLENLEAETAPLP

Row | Binder | GTP binding rMOR EC50 | GTP binding rMOR Emax
5 | B1 | 176 nM | 28%
6 | [Dmt][dA]GF[Nle]PS(Glc)W-{NH‑Bn(CF3)2} [DmtDAlaGlyPheNleProSer(OGlu)TrpNHBn(CF3)2 (TY056)] | 44.9 nM | 66%
7 | Y[dA]GF[Nle]PS(Glc)W-{NH‑Bn(CF3)2} [TyrDAlaGlyPheNleProSer(OGlu)TrpNHBn(CF3)2 (TY041)] | 18 nM | 42%
8 | [Dmt][dA]GFMPLW-NHBn [DmtDAlaGlyPheMetProLeuTrpNHBn (TY034)] | 0.4 nM | 
9 | Y[dC]GF[Nle]PCW-{NH(3,5-(CF3)2-benzyl)} (disulfide 2-7, also called [D-Cys2, Cys7]TY027) [Tyr[DCysGlyPheNleProCys]TrpNHBn(CF3)2 (TY035)] | 36 nM | 39%

molecular target: µ opioid receptor of the guinea pig isolated ileum (guinea pig, UniProt P97266 1-98); assay: cell-based or functional assay
Sequence (P97266 whole entry): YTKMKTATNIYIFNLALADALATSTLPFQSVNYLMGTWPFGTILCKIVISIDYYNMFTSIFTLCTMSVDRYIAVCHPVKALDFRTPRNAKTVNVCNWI

Row | Binder | GPI/LMMP opioid(mu) agonist IC50
10 | B1 | 1890 nM
11 | [Dmt][dA]GF[Nle]PS(Glc)W-{NH‑Bn(CF3)2} [DmtDAlaGlyPheNleProSer(OGlu)TrpNHBn(CF3)2 (TY056)] | 24.9 nM
12 | Y[dA]GF[Nle]PS(Glc)W-{NH‑Bn(CF3)2} [TyrDAlaGlyPheNleProSer(OGlu)TrpNHBn(CF3)2 (TY041)] | 517 nM
13 | [Dmt][dA]GFMPLW-NHBn [DmtDAlaGlyPheMetProLeuTrpNHBn (TY034)] | 11.4 nM
14 | Y[dC]GF[Nle]PCW-{NH(3,5-(CF3)2-benzyl)} (disulfide 2-7, also called [D-Cys2, Cys7]TY027) [Tyr[DCysGlyPheNleProCys]TrpNHBn(CF3)2 (TY035)] | 1010 nM

molecular target: guinea pig NK1 receptor (guinea pig, UniProt P30547 1-407); assay: cell-based or functional assay
Sequence (P30547 whole entry): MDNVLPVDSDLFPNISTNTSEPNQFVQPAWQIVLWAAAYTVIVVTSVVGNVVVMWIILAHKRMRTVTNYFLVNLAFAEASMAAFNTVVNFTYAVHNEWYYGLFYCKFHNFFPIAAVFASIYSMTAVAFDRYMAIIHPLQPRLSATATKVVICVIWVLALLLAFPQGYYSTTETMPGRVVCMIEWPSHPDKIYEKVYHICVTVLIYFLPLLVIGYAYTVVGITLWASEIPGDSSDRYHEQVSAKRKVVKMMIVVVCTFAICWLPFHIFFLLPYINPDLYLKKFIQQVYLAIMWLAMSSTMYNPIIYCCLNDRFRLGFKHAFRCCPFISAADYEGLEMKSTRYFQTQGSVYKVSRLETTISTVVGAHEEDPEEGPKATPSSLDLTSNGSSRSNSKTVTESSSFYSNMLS

Row | Binder | GPI/LMMP SP antagonist Ke
15 | B1 | 2.83 nM
16 | [Dmt][dA]GF[Nle]PS(Glc)W-{NH‑Bn(CF3)2} [DmtDAlaGlyPheNleProSer(OGlu)TrpNHBn(CF3)2 (TY056)] | 1.2 nM
17 | Y[dA]GF[Nle]PS(Glc)W-{NH‑Bn(CF3)2} [TyrDAlaGlyPheNleProSer(OGlu)TrpNHBn(CF3)2 (TY041)] | 1.8 nM
18 | [Dmt][dA]GFMPLW-NHBn [DmtDAlaGlyPheMetProLeuTrpNHBn (TY034)] | 36.9 nM
19 | Y[dC]GF[Nle]PCW-{NH(3,5-(CF3)2-benzyl)} (disulfide 2-7, also called [D-Cys2, Cys7]TY027) [Tyr[DCysGlyPheNleProCys]TrpNHBn(CF3)2 (TY035)] | 2.2 nM

molecular target: T2, rat µ opioid receptor; assay: radioligand competition vs [3H]DAMGO, membranes of rMOR cells

Row | Binder | Ki
20 | B1 | 256 nM
21 | [Dmt][dA]GF[Nle]PS(Glc)W-{NH‑Bn(CF3)2} [DmtDAlaGlyPheNleProSer(OGlu)TrpNHBn(CF3)2 (TY056)] | 1.9 nM
22 | Y[dA]GF[Nle]PS(Glc)W-{NH‑Bn(CF3)2} [TyrDAlaGlyPheNleProSer(OGlu)TrpNHBn(CF3)2 (TY041)] | 8 nM
23 | [Dmt][dA]GFMPLW-NHBn [DmtDAlaGlyPheMetProLeuTrpNHBn (TY034)] | 0.14 nM
24 | Y[dC]GF[Nle]PCW-{NH(3,5-(CF3)2-benzyl)} (disulfide 2-7, also called [D-Cys2, Cys7]TY027) [Tyr[DCysGlyPheNleProCys]TrpNHBn(CF3)2 (TY035)] | 79.2 nM

molecular target: T1, human δ opioid receptor; assay: radioligand competition vs [3H]DPDPE, membranes of hDOR cells

Row | Binder | Ki
25 | B1 | 58.5 nM
26 | [Dmt][dA]GFMPLW-NHBn [DmtDAlaGlyPheMetProLeuTrpNHBn (TY034)] | 0.1 nM
27 | Y[dC]GF[Nle]PCW-{NH(3,5-(CF3)2-benzyl)} (disulfide 2-7, also called [D-Cys2, Cys7]TY027) [Tyr[DCysGlyPheNleProCys]TrpNHBn(CF3)2 (TY035)] | 1.29 nM

molecular target: T3, human NK1 receptor (human, UniProt P25103 1-407); assay: competition vs [3H]substance P, membranes of hNK1-transfected CHO cells
T3 construct: whole, on cells; Assayed as membrane preparations of transfected CHO cells; also called hNK1; human neurokinin-1 receptor
T3 sequence (P25103 whole entry): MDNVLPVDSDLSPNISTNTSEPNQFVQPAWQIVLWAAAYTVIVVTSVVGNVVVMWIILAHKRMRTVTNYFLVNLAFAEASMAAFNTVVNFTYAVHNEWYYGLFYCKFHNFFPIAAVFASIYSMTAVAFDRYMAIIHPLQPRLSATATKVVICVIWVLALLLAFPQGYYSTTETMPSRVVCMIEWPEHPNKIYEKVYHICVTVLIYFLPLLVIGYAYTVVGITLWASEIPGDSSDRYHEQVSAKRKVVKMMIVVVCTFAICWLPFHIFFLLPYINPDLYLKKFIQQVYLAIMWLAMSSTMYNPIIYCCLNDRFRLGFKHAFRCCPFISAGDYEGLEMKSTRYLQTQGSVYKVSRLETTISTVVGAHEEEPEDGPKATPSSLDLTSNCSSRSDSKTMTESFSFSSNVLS

Row | Binder | Ki | LogIC50
28 | H-Y[dA]GFPLW-{NMe(benzyl)} (also: TFA salt, TFA salt; also called TY010) [H-Tyr-D-Ala-Gly-Phe-Pro-Leu-Trp-NMe-Bzl] | 1.6 nM | -8.5
29 | H-Y[dA]GFPLW-{NH(3,5-(CF3)2-benzyl)} (also: TFA salt, TFA salt; also called TY012) [H-Tyr-D-Ala-Gly-Phe-Pro-Leu-Trp-NH-3,5-Bzl(CF3)2] | 0.61 nM | 
30 | H-Y[dA]GFPLW-{NMe‑Bn(CF3)2} (also: TFA salt, TFA salt; also called TY013) [H-Tyr-D-Ala-Gly-Phe-Pro-Leu-Trp-NMe-3,5-Bzl(CF3)2] |  | -8.5
31 | H-Y[dA]GFPLW-{OBzl(3,5-(CF3)2)} (also: TFA salt, TFA salt; also called TY001) [H-Tyr-DAla-Gly-Phe-Pro-Leu-Trp-O-3,5-Bzl(CF3)2] | 0.0023 nM | -11.3
32 | H-Y[dA]GFPLW-OBn (also: TFA salt, TFA salt; also called TY011) [H-Tyr-DAla-Gly-Phe-Pro-Leu-Trp-O-Bzl] | 100 nM | -6.7
33 | H-Y[dA]GFPLW-NHBn (also: TFA salt, TFA salt; also called TY008) [H-Tyr-DAla-Gly-Phe-Pro-Leu-Trp-NH-Bzl] | 14 nM | 

molecular target: T4, rat NK1 receptor (rat, UniProt P14600 1-407); assay: competition vs [3H]substance P, membranes of rNK1-transfected CHO cells
T4 construct: whole, on cells; Assayed as membrane preparations of transfected CHO cells; also called rNK1; rNK-1
T4 sequence (P14600 whole entry): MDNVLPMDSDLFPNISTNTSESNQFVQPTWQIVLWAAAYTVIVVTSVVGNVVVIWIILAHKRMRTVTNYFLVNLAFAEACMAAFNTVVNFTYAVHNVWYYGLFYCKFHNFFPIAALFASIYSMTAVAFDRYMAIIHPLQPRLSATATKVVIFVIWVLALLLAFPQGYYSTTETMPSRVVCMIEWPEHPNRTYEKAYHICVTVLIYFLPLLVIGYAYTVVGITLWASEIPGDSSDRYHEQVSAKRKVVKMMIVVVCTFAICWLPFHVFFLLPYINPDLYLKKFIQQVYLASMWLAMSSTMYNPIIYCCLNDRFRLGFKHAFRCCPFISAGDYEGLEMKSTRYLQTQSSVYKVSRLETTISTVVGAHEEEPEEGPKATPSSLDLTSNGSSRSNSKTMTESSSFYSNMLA

Row | Binder | Ki | LogIC50
34 | H-Y[dA]GFPLW-{NH(3,5-(CF3)2-benzyl)} (also: TFA salt, TFA salt; also called TY012) [H-Tyr-D-Ala-Gly-Phe-Pro-Leu-Trp-NH-3,5-Bzl(CF3)2] | 33 nM | -7
35 | H-Y[dA]GFPLW-{NMe‑Bn(CF3)2} (also: TFA salt, TFA salt; also called TY013) [H-Tyr-D-Ala-Gly-Phe-Pro-Leu-Trp-NMe-3,5-Bzl(CF3)2] | 6.1 nM | 
36 | H-Y[dA]GFPLW-{OBzl(3,5-(CF3)2)} (also: TFA salt, TFA salt; also called TY001) [H-Tyr-DAla-Gly-Phe-Pro-Leu-Trp-O-3,5-Bzl(CF3)2] | 1.6 nM | -8.3
37 | H-Y[dA]GFPLW-OBn (also: TFA salt, TFA salt; also called TY011) [H-Tyr-DAla-Gly-Phe-Pro-Leu-Trp-O-Bzl] | 270 nM | -6.1

molecular target: T5, human NK1 receptor (human, UniProt P25103 1-407); assay: radioligand competition vs [3H]substance P, membranes of hNK1 CHO cells
T5 construct: whole, on cells; Used as membrane preparations of transfected CHO cells; also called hNK1; human neurokinin-1 receptor
T5 sequence (P25103 whole entry): as the sequence (P25103 whole entry) above

Row | Binder | Ki
38 | B1 | 0.00027 nM
39 | [Dmt][dA]GF[Nle]PS(Glc)W-{NH‑Bn(CF3)2} [DmtDAlaGlyPheNleProSer(OGlu)TrpNHBn(CF3)2 (TY056)] | 0.0017 nM
40 | [Dmt][dA]GFMPLW-NHBn [DmtDAlaGlyPheMetProLeuTrpNHBn (TY034)] | 2.39 nM
41 | Y[dC]GF[Nle]PCW-{NH(3,5-(CF3)2-benzyl)} (disulfide 2-7, also called [D-Cys2, Cys7]TY027) [Tyr[DCysGlyPheNleProCys]TrpNHBn(CF3)2 (TY035)] | 0.091 nM

molecular target: T6, rat NK1 receptor (rat, UniProt P14600 1-407); assay: radioligand competition vs [3H]substance P, membranes of rNK1 CHO cells
T6 construct: whole, on cells; Used as membrane preparations of transfected CHO cells; also called rNK1; rat neurokinin-1 receptor
T6 sequence (P14600 whole entry): as the sequence (P14600 whole entry) above

Row | Binder | Ki
42 | B1 | 1.45 nM
43 | [Dmt][dA]GF[Nle]PS(Glc)W-{NH‑Bn(CF3)2} [DmtDAlaGlyPheNleProSer(OGlu)TrpNHBn(CF3)2 (TY056)] | 10.1 nM
44 | Y[dA]GF[Nle]PS(Glc)W-{NH‑Bn(CF3)2} [TyrDAlaGlyPheNleProSer(OGlu)TrpNHBn(CF3)2 (TY041)] | 13.6 nM
45 | [Dmt][dA]GFMPLW-NHBn [DmtDAlaGlyPheMetProLeuTrpNHBn (TY034)] | 317 nM
